Assay results taken from patent US20180215829A1 (CRESCENDO BIOLOGICS, published 2018).

Target: T1, recombinant human IL-17RA Fc fusion protein (R&D Systems 177-IR-100) (human, UniProt Q96F46 33-320)
T1 construct: Bought protein; not shown: Fc domain of human IgG1
T1 sequence: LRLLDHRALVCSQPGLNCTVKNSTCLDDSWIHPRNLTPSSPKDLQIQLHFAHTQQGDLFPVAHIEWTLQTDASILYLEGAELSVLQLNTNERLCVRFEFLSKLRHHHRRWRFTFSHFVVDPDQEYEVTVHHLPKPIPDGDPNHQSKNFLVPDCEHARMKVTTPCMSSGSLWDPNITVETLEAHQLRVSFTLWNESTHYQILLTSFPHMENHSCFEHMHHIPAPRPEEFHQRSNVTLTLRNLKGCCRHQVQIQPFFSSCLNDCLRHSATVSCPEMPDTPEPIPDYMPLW
Assay: receptor/ligand biochemical inhibition ELISA: VH competes with 1 nM IL-17A for coated IL-17RA-Fc
Description: VH, both purified and crude periplasmic extracts, were also tested for their ability to inhibit the interaction of IL-17A with recombinant IL-17RA-Fc. […] Following washing of excess coating antigen, as described above, the wells of the plate were incubated with 3% Marvel/PBS to block non-specific protein interactions. VH preparations, crude periplasmic extracts or purified VH, or suitable controls, were prepared with 1 nM recombinant IL-17A (Peprotech, cat# AF-200-17) in 3% skimmed milk powder/PBS solution in polypropylene plates or tubes. The mixture was then transferred to the assay plate and incubated for 1 hour at room temperature. Excess protein was removed by washing and bound IL-17A was detected by incubation with biotinylated anti-IL-17A Mab (R & D Systems, cat BAF317) followed by the addition of neutravidin-HRP (Pierce, cat#31030) and TMB substrate (Sigma, cat# T0440). The TMB reaction was stopped by addition of 0.5M H₂SO₄ and absorbances were measured at 450 nm in a plate reader.

IC50: 3.7 nM
B1: VH clone 2.1 (VHH)
VHH: QVQLVQSGAEVKKPGASVKVSCKASGYPFTSYDINWVRQATGQSLEWMGWMNPNSGDTVYAQKFQGRVTMTRNTSISTAYMELSSLRSEDTAVYFCARGRRDDWKNNYWGQGTLVTVSS
notes: Human VH single domain antibody, no light chain; Parent clone of family 2; also called VH 2.1
